The target in the assay is T1, FLAG-Prrc2a-P2 (residue 761-1408) (mouse, UniProt Q7TSC1 761-1408).
T1 construct: Prrc2a p2 fragment, residue 761-1408, amplified from a mouse cDNA library; holds the region rich in glycine, arginine and glutamic acid (GRE domain); the legend of the pull-down names FLAG-Prrc2a-P2 beside P1, P3 and P4, which fits the proteins purified from HEK293T cells; also called P2 fragment; GRE domain; source: HEK293T, transfected, purified (FLAG beads, eluted with 3xFLAG peptide)
Briefly: pull-down; in vitro GST pull-down with purified GST-YTHDF2 and purified FLAG-Prrc2a fragments. Conditions: both partners purified.

T1 sequence (Q7TSC1 761-1408): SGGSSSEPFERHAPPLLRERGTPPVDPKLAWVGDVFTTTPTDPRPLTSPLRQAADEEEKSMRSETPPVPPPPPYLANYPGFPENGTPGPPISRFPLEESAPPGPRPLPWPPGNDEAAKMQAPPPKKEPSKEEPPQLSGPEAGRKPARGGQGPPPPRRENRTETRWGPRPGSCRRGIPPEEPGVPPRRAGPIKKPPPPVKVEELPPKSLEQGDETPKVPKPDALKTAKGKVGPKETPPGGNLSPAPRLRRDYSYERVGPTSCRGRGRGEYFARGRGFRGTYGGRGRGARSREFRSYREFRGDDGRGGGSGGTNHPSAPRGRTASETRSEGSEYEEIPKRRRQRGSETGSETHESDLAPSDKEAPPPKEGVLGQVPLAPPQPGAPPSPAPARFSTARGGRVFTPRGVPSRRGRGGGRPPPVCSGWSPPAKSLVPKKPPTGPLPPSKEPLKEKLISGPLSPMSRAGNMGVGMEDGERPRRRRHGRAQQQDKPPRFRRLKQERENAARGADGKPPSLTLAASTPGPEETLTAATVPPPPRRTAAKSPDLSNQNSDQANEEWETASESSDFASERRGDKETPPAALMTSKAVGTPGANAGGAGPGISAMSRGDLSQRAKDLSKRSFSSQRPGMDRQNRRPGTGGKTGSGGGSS

B1: GST-YTHDF2 (natural protein, human, UniProt Q9Y5A9 1-579, looked up)
chain: MSASSLLEQRPKGQGNKVQNGSVHQKDGLNDDDFEPYLSPQARPNNAYTAMSDSYLPSYYSPSIGFSYSLGEAAWSTGGDTAMPYLTSYGQLSNGEPHFLPDAMFGQPGALGSTPFLGQHGFNFFPSGIDFSAWGNNSSQGQSTQSSGYSSNYAYAPSSLGGAMIDGQSAFANETLNKAPGMNTIDQGMAALKLGSTEVASNVPKVVGSAVGSGSITSNIVASNSLPPATIAPPKPASWADIASKPAKQQPKLKTKNGIAGSSLPPPPIKHNMDIGTWDNKGPVAKAPSQALVQNIGQPTQGSPQPVGQQANNSPPVAQASVGQQTQPLPPPPPQPAQLSVQQQAAQPTRWVAPRNRGSGFGHNGVDGNGVGQSQAGSGSTPSEPHPVLEKLRSINNYNPKDFDWNLKHGRVFIIKSYSEDDIHRSIKYNIWCSTEHGNKRLDAAYRSMNGKGPVYLLFSVNGSGHFCGVAEMKSAVDYNTCAGVWSQDKWKGRFDVRWIFVKDVPNSQLRHIRLENNENKPVTNSRDTQEVPLEKAKQVLKIIASYKHTTSIFDDFSHYEKRQEEEESVKKERQGRGK
notes: human YTHDF2 gene subcloned into a pGEX expression vector with GST-tag; also called recombinant GST-YTHDF2; source: E. coli BL21 (DE3), purified (FPLC, Profinity GST cartridge)
For B1, the binding result is recorded as “binds”.

Source of the values: PMC6318280, “A novel m^6A reader Prrc2a controls oligodendroglial specification and myelination” (Cell Research, 2018).
